Data: the nanobody polyreactivity screen of Harvey et al. (2022)

Assay: yeast display, Sf9 membrane polyspecificity reagent, FACS + sequencing; frameworks hold sequencing errors
How it was run: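 After 36–48 hours of galactose induction, yeast (Saccharomyces cerevisiae BJ5465) displaying a synthetic nanobody library were stained at 4 °C for 1 hour with 10% biotinylated, detergent-solubilized Sf9 membrane reagent. Streptavidin microbeads enriched the stained cells before FACS sorting into low and high (top ~1%) gates on anti-HA and streptavidin fluorescence. Each clone's polyreactivity label reflects its gate of origin.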

Row | Sequence | polyreactivity (PSR sort gate)
1 | QVQLVESGGGLVQAGGSLRLSCAASGFTFPFYTMGWYRQAPGKERELVAAITRSGASTFYADSVKGRFTISRDNAKNTVYLQMNSLKPEDTAVYYCAARRGYAPYEYWGQGTQVNVSS | high polyreactivity
2 | QVQLVESGGGLVQAGGSLRLSCAASGFTFPFYTMGWYRQAPGKERELVAAITRSGASTFYADSVKGRFTISRDNAMNTVYLQMNSLKPEDTAVYYCATQLHRYYQDDYWGQGTQVTVSS | high polyreactivity
3 | QVQLVESGGGLVQAGGSLRLSCAASGFTFPGDAMGWYRQAPGKERELVAAIDTSGGNTYADSVKGRFTISRDNAKNTVYLQMNSLKPEDTAVYYCAADYYYVYSSFGHYYWGQGTQVTVSS | low polyreactivity
4 | QVQLVESGGGLVQAGGSLRLSCAASGFTFPGYAMGWYRQAPGKERELVAAISKRGGSTYYADSVKGRFTISRDNAKNTVYLQMNSLKPEDTAVYYCAKSRRGSFYYPYTYTKSGYEYWGQGTQVTVSS | high polyreactivity
5 | QVQLVESGGGLVQAGGSLRLSCAASGFTFPGYAMGWYRQAPGKERELVAAISSSGGSTYYADSVKGRFTISRDNAKNTVYLQMNSLKPEDTAVYYCAARHGQSWQWLEYDYWGQGTQVTVSS | low polyreactivity
6 | QVQLVESGGGLVQAGGSLRLSCAASGFTFPGYTKGWYIQAPGKERELVATISRSGGSMFYADSVKGRFTISRDNAKNTVYLQMNSLKPEDTAVYYCNKSPSWWRYKTGLDYWGQGTQVTVSS | high polyreactivity
7 | QVQLVESGGGLVQAGGSLRLSCAASGFTFPKYAMGWYRQAPGKERELVAGITTGGSTYYADSVKGRFTISRDNAKNTVYLQMNSLKPEDTAVYYCAASGRLSLGGRFYDLGLRYDYWGQGTQVTVSS | low polyreactivity
8 | QVQLVESGGGLVQAGGSLRLSCAASGFTFPLNAMGWYRQAPGKEREFVAAITYSGGGTYYADSVKGRFTISRDNAKNTVYLQMNSLKPEDTAVYYCAAERGYQAHPGQGDYWGQGTQVTVSS | high polyreactivity
9 | QVQLVESGGGLVQAGGSLRLSCAASGFTFPRNAMGCYRQAPGKERELVAGISKSGGSTYYADSVKGRFTISRDNAKNTVYLQMNSLKPEDTAVYYCAKAVNSPRKYQLGNGYWGQGTQVTVSS | high polyreactivity
10 | QVQLVESGGGLVQAGGSLRLSCAASGFTFPRYAMGWYREAPGKEREFVAAINRGGSTYYADSVKGRFTISRDNAKNTVYLQMNSLKPEDTAVYYCITDRKNRPSPGDYYWGQGTQVTVSS | low polyreactivity
11 | QVQLVESGGGLVQAGGSLRLSCAASGFTFPRYAMGWYRQAPGKERELVAAITSGDRTYYADSVKGRFTISRDNAKNTVYLQMNSLKPEDTAVYYCATSSRYRYWHRYDYWGLGTQVTVSS | high polyreactivity
12 | QVQLVESGGGLVQAGGSLRLSCAASGFTFPVNAMGWYRQAPGKERELVATINSGGSTNYADSVKGRFTISRDNAKNTVYLQMNSLKPEDTAVYYCAAVTTDGVYAFDYWGQGTQVTVSS | low polyreactivity
13 | QVQLVESGGGLVQAGGSLRLSCAASGFTFPVYAMGWYREAPGKERELVAAISTSAGSTYYADSVKGRFSISRDNAKNTVYLQLNSLKPEDTAVYYCNADVAGGYGWKSYHGYDYWGQGTQVTVSS | high polyreactivity
14 | QVQLVESGGGLVQAGGSLRLSCAASGFTFPWNVMGWYRQAPGKEREFVAAISKSAGSTFYADSVKGRFTISRDNAKNTVYLQMNSLKPEDTAVYYCAKPRVPGVHVQEMYYWGQGTQVTVSS | low polyreactivity
15 | QVQLVESGGGLVQAGGSLRLSCAASGFTFPWYAMGWDRQAPGKERELVASISYRGDSTYYADSVKGRFTFSRDNAKNTVYLQMNSLKPEDTAVYYCNKRLASYYLPGFDYWGQGTQVSVSS | low polyreactivity
16 | QVQLVESGGGLVQAGGSLRLSCAASGFTFPWYAMGWYRQAPGKERELVAAISTSGDSTYYADSVKGRFTISRDNAKNTVYLQMNSLKPEDTAVYYCAARVVRGRYGYWGQGTQVTVSS | high polyreactivity
17 | QVQLVESGGGLVQAGGSLRLSCAASGFTFPWYAMGWYRQAPGKERELVATITRGGSTYYADSVKGRFTISRDNAKNTVYLQMNSLKPEDTAVYYCAVTYWRYHSYSPYDYWGQGTQVTVSS | high polyreactivity
18 | QVQLVESGGGLVQAGGSLRLSCAASGFTFPWYTMGWYRQAPGKERELGAAINSRGGSTYYADSVKGRFTISRDNAKNTVYLQMNSLKPEDTAVYYCATRSFGRMDYWGQGTQVTVSS | high polyreactivity
19 | QVQLVESGGGLVQAGGSLRLSCAASGFTFPYYAMGWYRQAPGKERELVAAISSGGNTNYADSVKGRFTISRDNAKNTVYLQMNSLKPEDTAVYYCAAVFLRYLNWSVKYDYWGQGTQVTVSS | low polyreactivity
20 | QVQLVESGGGLVQAGGSLRLSCAASGFTFQENAMGWYRQAHGKERELVAAISTSGDSTYYADSVKGRFTISRDNAKNTVYLQMNSLKPEDTAVYYCATAYEVLVACVLYDYWGKGTQVTVSS | low polyreactivity
21 | QVQLVESGGGLVQAGGSLRLSCAASGFTFQENAMGWYRQATGKERELVAAISKSGGITYYADSVKGRFTISRENAKNNVYLQMNSLKPEDTAVYYCNIGNAYVVYTSGYDYWGQGTQVTVSS | low polyreactivity
22 | QVQLVESGGGLVQAGGSLRLSCAASGFTFQFYAMGWYRQAPGKERELVAAITWSGGSTYYADSVKGRFTISRDNAKNSVYLQLKSLKPEDTAVYFCAKDRRTYLSYIYDYWGQGTQVTVSS | high polyreactivity

Row | Sequence | polyreactivity (PSR sort gate)
23 | QVQLVESGGGLVQAGGSLRLSCAASGFTFQIYAMGWYRQAPGKERELVAAITWSGGRTYYGDSVKGRFTISRDNAKNTVYLQMNSLKREDTAVYYSNARYTTGSDPGGPGTYGYWGQGTQVTVSS | low polyreactivity
24 | QVQLVESGGGLVQAGGSLRLSCAASGFTFQRNAMGWYRPAPGKERELVAAISKSGGSTYYADSVKGRFTISRDNAKNTVYLQMNSLKPEDTAVYYCARDRGYQSGYDYWGQGTQVTVSS | high polyreactivity
25 | QVQLVESGGGLVQAGGSLRLSCAASGFTFQRYAMGWYRQAPGKERELVAAISGSGGSTYYADSVKGRFTISRDNAKNTVYLQMNSLKPEDTAVYYCAARYKYKDLYRYDYWGQGTQVTVSS | high polyreactivity
26 | QVQLVESGGGLVQAGGSLRLSCAASGFTFQRYAMGWYRQAPGKERELVAGITRRSGSTFYADSVKGRFTISRDNAKNNVYLLMNSLKPEDTAVYYCAATVPGLHWIYDFWGQGTQVTVSS | high polyreactivity
27 | QVQLVESGGGLVQAGGSLRLSCAASGFTFQSNAMGWYRQAPGKERELVATISLTGGSTYYADSVKGRFTISRDNAKNTVYLQMNSLKPEDTAVYYCNAVRYASPYGYWGQGTQVTVSS | high polyreactivity
28 | QVQLVESGGGLVQAGGSLRLSCAASGFTFQYYAMGWYRQAPGKERELVAAISRSGGSTYYADSVKGRFTISRDNAKNTVYLQMNSLKPEDTAVYYCAKDRVGARRTDYDYWGQGTQVTVSS | high polyreactivity
29 | QVQLVESGGGLVQAGGSLRLSCAASGFTFQYYTMGWYRQAPGKERELVAAISGSGGRTYYADSVKGRFTISRDNAKNTVYLQMNSLKPEDTAVYYCAKVYNRVYYGKGDYWGQGTQVTVSS | high polyreactivity
30 | QVQLVESGGGLVQAGGSLRLSCAASGFTFRANGMGWYRQATGKERELVATITSGGTTNYADSVKGRFTISRDNAKNTVYLQMNSLKPEDTAVYYCAKRFGPAYFRLYDYWGQGTQVTVSS | low polyreactivity
31 | QVQLVESGGGLVQAGGSLRLSCAASGFTFRAYAMGWYRQAPGKEREFVAAISRRGGSTSYADSVKGRFTISRDIAKNTVYLQMNSQKPEDTSVYYCAADVQEEYDYWGQGTQVTVSS | high polyreactivity
32 | QVQLVESGGGLVQAGGSLRLSCAASGFTFRAYAMGWYRQAPGKERELVAAINISGGSTYYADSVKGRFTISRDNAKNTVYLQMNSLKPEDTAVYYCAADWPEDWYTEYGYWGQGTQVTVSS | low polyreactivity
33 | QVQLVESGGGLVQAGGSLRLSCAASGFTFRAYAMGWYRQAPGKERELVAAITSGTRTYYADSVKGRFTISRDNAKNTVYLQMNSLKPEDTAVYDCAVGFILPSTFTRMYYWGQGTQVTVSS | high polyreactivity
34 | QVQLVESGGGLVQAGGSLRLSCAASGFTFRAYAMGWYRQAPGKERELVAGITRSGGSTHYADSVKGRFTISRDNAKNTVYLQMNSLKPEDTAVYYCNARYPYRGKRKPPDYWGQGTQVTVSS | high polyreactivity
35 | QVQLVESGGGLVQAGGSLRLSCAASGFTFRAYTMGWYRQAPGKERELVAAITYSGGRTYYADSVKGRFTISRDNAKNTVYLQMNSLKPEDTAVYYCATRGWALSEYYYWGQGTQVTVSS | high polyreactivity
36 | QVQLVESGGGLVQAGGSLRLSCAASGFTFRAYTMGWYRQAPGTERGLVAAITYSGGRTYYADSVKGRFTISRDNAKNTVYLQMNSLKPEDTAVYYCAAVRTKVWRGPEMDYWGQGTQVTVSS | high polyreactivity
37 | QVQLVESGGGLVQAGGSLRLSCAASGFTFRAYVMGWSRQAPGKERELVAAISRSGGSTYYADSVKGRLTISRDNAKNTVYLQMNSLKPEDTAVYYCAAGVPGPRVKIQARFDYWGQGTQVTVSS | high polyreactivity
38 | QVQLVESGGGLVQAGGSLRLSCAASGFTFRDYAMGWSRQAPGKERELVAAISRSGDSTYYADSVKGRFTISRDNAKNTVYLQMNSLKPEDTAVYYYAAKRRYTTYDYWGQGTQVTVSS | high polyreactivity
39 | QVQLVESGGGLVQAGGSLRLSCAASGFTFRDYAMGWYRQAPGKEREFIADITFSGDNTRYADSVKGRFTISRDNAKNTVYLQMNSLKREDTAVYYCNADYLVSWLQFDYWGQGTQVTVSS | low polyreactivity
40 | QVQLVESGGGLVQAGGSLRLSCAASGFTFRDYAMGWYRQAPGKERELVAAISFSGGRTFYADSVKGRFTISRDNAKNTVYLQMNSLKPEDTAVYYCNAQYLTYRYYPRRNLDYWGQGTQVTVSS | high polyreactivity
41 | QVQLVESGGGLVQAGGSLRLSCAASGFTFRFNAMGWYIQAPGKERELVAAIRQSGGSTYYADSVKGRFTISRDNAKNTVYLQMNSLKPEDTAVYYCATRYFTGYGLRPQFYYWGQGTQVTVSS | high polyreactivity
42 | QVQLVESGGGLVQAGGSLRLSCAASGFTFRGNAMGLYRQAPRKERELVATITYNAGSTYYADSVKGRFTISRDNAKNTVYLQMNSLKPEDTAVYYCAVELDSVPDYEPWTEYDYWGQGTQVTVSS | low polyreactivity
43 | QVQLVESGGGLVQAGGSLRLSCAASGFTFRGYAMGWYRPAPGKERELVAAIRGGGGRTYYADSVKGRFTISRDNAKNTVYLQMNSLKPEDTAVYYCAKVVSIRNDEYDYWGQGTQVTVSS | high polyreactivity
